Reference: article PMC6484116, “The NifZ accessory protein has an equivalent function in maturation of both nitrogenase MoFe protein P-clusters” (The Journal of Biological Chemistry, 2019)
Values joined by “and” are separate entries in the source; they are usually repeats but may differ in a detail not shown here. Equal entries are not always repeated.

Experiments:
[1] = biological target: T1, MoFe protein^HisΔZ (His-tagged nitrogenase MoFe protein produced in a nifZ-deletion strain) (Azotobacter vinelandii, UniProt P07328 1-492; P07329 1-523); assay: affinity purification with mass spectrometry; MoFe protein^HisΔZ isolated by IMAC from extract of cells derepressed 4 h, then Q-Sepharose anion exchange (200-500 mM NaCl gradient); fractions on SDS-PAGE, Coomassie, densitometry; bands identified by MALDI; conditions: partners not purified
T1 construct: nitrogenase MoFe protein α-subunit (NifD), Azotobacter vinelandii; polyhistidine-encoding tag incorporated into the N-terminal coding region; nitrogenase MoFe protein β-subunit (NifK), Azotobacter vinelandii; A mixed population: αβ-units hold either an immature P-cluster without FeMo-cofactor or a mature P-cluster with FeMo-cofactor; also called MoFe^His protein; α2β2 heterotetramer; source: A. …
T1 sequence (looked up) 1: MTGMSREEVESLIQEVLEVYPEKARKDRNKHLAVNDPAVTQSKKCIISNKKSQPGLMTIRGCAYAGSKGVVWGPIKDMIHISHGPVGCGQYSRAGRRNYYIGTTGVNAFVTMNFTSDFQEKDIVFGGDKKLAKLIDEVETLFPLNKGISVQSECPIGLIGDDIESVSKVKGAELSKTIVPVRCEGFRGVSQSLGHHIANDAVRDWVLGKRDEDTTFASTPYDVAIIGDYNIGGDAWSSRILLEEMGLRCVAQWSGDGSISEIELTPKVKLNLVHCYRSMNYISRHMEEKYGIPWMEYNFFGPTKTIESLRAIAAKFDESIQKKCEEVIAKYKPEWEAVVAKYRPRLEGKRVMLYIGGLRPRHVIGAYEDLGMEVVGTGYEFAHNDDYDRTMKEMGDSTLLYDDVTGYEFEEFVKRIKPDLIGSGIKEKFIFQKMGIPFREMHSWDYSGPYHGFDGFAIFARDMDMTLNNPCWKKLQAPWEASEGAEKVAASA
T1 sequence (looked up) 2: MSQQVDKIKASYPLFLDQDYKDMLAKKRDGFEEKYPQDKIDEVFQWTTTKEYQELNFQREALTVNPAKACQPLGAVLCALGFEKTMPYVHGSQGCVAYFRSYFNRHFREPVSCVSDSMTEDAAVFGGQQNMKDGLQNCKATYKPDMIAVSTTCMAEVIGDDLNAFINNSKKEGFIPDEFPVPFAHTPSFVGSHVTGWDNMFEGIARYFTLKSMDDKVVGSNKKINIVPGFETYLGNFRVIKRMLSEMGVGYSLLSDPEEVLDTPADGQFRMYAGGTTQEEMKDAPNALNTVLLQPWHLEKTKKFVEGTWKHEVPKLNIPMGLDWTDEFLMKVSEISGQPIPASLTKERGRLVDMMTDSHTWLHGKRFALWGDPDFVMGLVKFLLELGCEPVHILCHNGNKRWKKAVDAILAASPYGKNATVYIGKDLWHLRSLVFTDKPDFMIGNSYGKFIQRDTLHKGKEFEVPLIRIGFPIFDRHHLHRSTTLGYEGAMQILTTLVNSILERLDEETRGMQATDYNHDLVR

[2] = biological target: T2, MoFe protein^StrΔZ (Strep-tagged nitrogenase MoFe protein produced in a nifZ-deletion strain) (Azotobacter vinelandii, UniProt P07328 1-492; P07329 1-523); assay: affinity purification with mass spectrometry; MoFe protein^StrΔZ isolated on Strep-Tactin (STAC) from cell extract, then Q-Sepharose anion exchange (200-500 mM NaCl gradient); fractions on SDS-PAGE, Coomassie, densitometry; bands identified by MALDI; also after incubating the extract 0-240 min with 36 mM Na2S2O4 at 30 °C (NifW slowly dissociates); conditions: partners not purified
T2 construct: nitrogenase MoFe protein α-subunit (NifD), Azotobacter vinelandii; Strep-encoding tag incorporated into the N-terminal coding region; nitrogenase MoFe protein β-subunit (NifK), Azotobacter vinelandii; A mixed population: αβ-units hold either an immature P-cluster without FeMo-cofactor or a mature P-cluster with FeMo-cofactor; also called MoFe^StrΔZ; α2β2 heterotetramer; source: A. vinelandii …
T2 sequence (looked up) 1: T1 sequence (looked up) 1
T2 sequence (looked up) 2: T1 sequence (looked up) 2

stoichiometry N [1]: ~1 NifW per α2β2 heterotetramer and 2 NifW per α2β2 heterotetramer
stoichiometry N [2]: ~1 NifW per α2β2 heterotetramer and ~2 NifW per α2β2 heterotetramer
B1: NifW (accessory protein, endogenous) (natural protein, UniProt P14888 1-115, looked up)
chain: MTVQPFSPDSDLTLDEAMDELVSAEDFLEFFGVPFDQDVVHVNRLHIMQRYHDYLSKAGDLDEHDDQARYAVFQKLLARAYLDFVESDALTEKVFKVFRMHEPQKTFVSIDQLLS
notes: NifW, Azotobacter vinelandii; also called NifW assembly factor; source: endogenous, A. vinelandii DJ1182 or DJ2111 cell extract; co-purified with MoFe protein
